Literature values in PMC9594772.

Molecular target: Dll4 ECD (Rattus norvegicus) (UniProt D3ZHH1)
Sequence (D3ZHH1 28-530): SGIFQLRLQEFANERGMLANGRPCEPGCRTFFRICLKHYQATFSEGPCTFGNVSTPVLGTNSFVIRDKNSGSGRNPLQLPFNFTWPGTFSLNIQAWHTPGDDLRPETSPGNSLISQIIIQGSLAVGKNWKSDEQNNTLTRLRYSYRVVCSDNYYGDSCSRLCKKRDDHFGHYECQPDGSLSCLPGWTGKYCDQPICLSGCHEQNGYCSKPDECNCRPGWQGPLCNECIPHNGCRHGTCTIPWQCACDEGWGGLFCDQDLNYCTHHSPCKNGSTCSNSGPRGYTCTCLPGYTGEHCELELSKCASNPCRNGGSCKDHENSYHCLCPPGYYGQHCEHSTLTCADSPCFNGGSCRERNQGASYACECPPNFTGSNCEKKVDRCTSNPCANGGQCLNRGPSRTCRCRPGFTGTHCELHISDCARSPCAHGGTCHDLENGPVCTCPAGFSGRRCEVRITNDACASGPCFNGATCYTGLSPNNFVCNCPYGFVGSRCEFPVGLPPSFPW

- Kd: 12.7 µM
Substance: Notch1 (from UniProt P46531)
